Laboratory results as given in paper PMC6908968 (Cell, 2019).

What was measured:
[1] = molecular target: EBOV glycoprotein (GP), Makona strain, full length mature, on Jurkat-GP cells (native GP) (Zaire ebolavirus, Makona (stand-in: …, UniProt P87666, strain))
[2] = molecular target: T1, thermolysin-cleaved EBOV GP on Jurkat-GP cells (cleaved GP) (Zaire ebolavirus, Makona (GP1 core …, strain))
T1 chain 1: not shown
T1 chain 2: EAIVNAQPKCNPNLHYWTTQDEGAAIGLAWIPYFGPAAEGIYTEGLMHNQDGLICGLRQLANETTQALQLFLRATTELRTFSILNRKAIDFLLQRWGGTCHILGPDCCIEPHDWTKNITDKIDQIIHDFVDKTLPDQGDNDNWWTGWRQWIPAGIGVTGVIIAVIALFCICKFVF

[3] = molecular target: EBOV GP ectodomain residues 1-636 (GPec) (Zaire ebolavirus, strain  …, UniProt Q05320)

Row | Binder | binding result [1] | binding result [2] | binding result [3]
1 | 5.6.c3105 (antibody, V domains shown) VH: EEQLVESGGDLVQPGGSLRLSCAASGFTFRSYDMYWVRQVTGKGLEWVSVIGAGGDTYYSDAVKGRFTISRENAKNSLYLQMNNLRAGDTAVYYCARSFGFLYGFDVWGHGTTVTVSS VL: ENVLTQSPGTLSLSPGERATLSCRASQSISSKYFAWYQHKPGQAPRVLIYAASSRATGVPDRFSGSGSGTDFTLTISRLEPEDFAVYYCQQYDSSPITFGQGTRLEIK | binds | binds | binds
2 | 5.6.c3508 (antibody, V domains shown) VH: QVQLEQSGAEVKKPGASVKVSCQAAGYTFTSYGISWVRQAPGQGLEWMGWISADNGNTKYAQNLQARVTMTTDTSTSTAYMEVRRLRSDDTAVYYCARDSGDLSSLLYYGMDVWGQGTTVTVSS VL: DIQLTQSPSFLSASVGDRVTITCRASQGISSYLAWYQQKPGKAPKLLIDAASTLQSGVPSRISGSRSGTEYTLTISSLQPEDFATYYCQQLNNFPFTFGPGTKVDIK | – | binds | binds
3 | 5.6.c3557 (antibody, V domains shown) VH: QVQLVESGGGVVQPGRSLRLSCAASGFSITNYAMHWVRQAPGRGLEWVALISYDGINQYYADSVKGRFTFSRDNSKNTLYLQMNSLRLDDTAVYYCARDPASPSDIFQDAFDIWGQGTTVIVSS VL: DIQMTQSPSSLSASVGDRVTITCRASQDISGWLAWYQQKPEKAPRSLIYATSSLQSGVPSRFSGSGSGTDFTLTISSLQPEDFATYYCQQYHSYPLTFGGGTKIQIK | – | binds | binds
4 | 5.6.c3567 (antibody, V domains shown) VH: EVQLVESGGVVVQPGGSLRLSCAASGFTFDDYTMHWVRQVPGKGPEWVSLITWDGAHTYYADSVKGRFTISRDNSKNSLYLQMNSLRTEDTALYFCARDTAGGAFWSGYPDYWGQGTLVTVSS VL: DIQMTQSPSSLSASVGDRVTITCRASQSISSYLIWYQQKPGKVPKVLIYGASSLQSGVPSRFSGSGSGTDFTLTISSLQPEDFATYYCQQSHSIPYTFGQGTKLEIK | – | binds | binds
5 | 5.6.c3835 (antibody, V domains shown) VH: QIQLVQSGAEVKKPGASVKVSCRASGYTFASSGISWVRQAPGQGLEWMGWINVYNGDTNSAHKLQGRVTMTTDTSTSTAYMELRSLRSDDTAVYYCTRDSFCAGSNSCYLWAGYYYYAMDVWGQGTTVTVSP VL: EIVMTQSPATLSVSPGERATLSCRASQSLSSNLAWYQQKPGQAPRLLIYRASTRATGVPARFSGSGSGTEFTLIISNLQSEDFAVYYCQQFQNWPRTFGQGTKVEIK | – | binds | binds
6 | 5.6.c4011 (antibody, V domains shown) VH: QVQLQESGPGVVKPSETLSLTCTVSGASMTGYYWSWIRQPPGKGLEWIGYIFYSGSTNYNPSLKSRATISVDTSKKQFSLKLSSVTAADTAVYYCARSVVVIENDAFDIWGQGTMVTVSS VL: DIQMTQSPSSLSASVGDRVTITCRASQSTTSYLNWYQQKPGKAPKLLIFAASTLQSGVPSRFSGSGSGTDFTLTISSLQPEDFATYYCQQSYSAPYTFGQGTKLEIK | – | binds | binds
7 | 5.6.c4013 (antibody, V domains shown) VH: EVQLVESGGDLVQPGGSLRLSCAASGFTVNANYLGWVRQTPGKGLEWVSLIYSGSGSTYYADSVKGRFTLSRDSSKNTLFLHMNSLRPEDTAVYYCARAGGVVVTAIRTTFDYWGRGTLVTVSS VL: DIQMTQSPSTLSASVGDRVTITCRASQSISRWLAWYQQKPGKAPKLLIYRASSLQNGVPSRFSGSGSGTEFTLTISGLQPDDFGIYYCQEYSSRYTFGQGTQLEIK | – | binds | binds
8 | 5.6.c4392 (antibody, V domains shown) VH: QVQLVESGGGVVQPGRSLRLSCAASGFFFRNYGIHWVRQAPGKGLEWVAIISYDESKKYYADSVKGRFTISRDNSKNTLYLQMNSLRAEDTAVYYCAKAHPHSRWFFDSWGQGTLVTVSS VL: NFVLTQPHSVSDSPGKTVTISCTRSSGSIATDYVQWYQQRPGSAPTLVIYEDNQRPSGVPNRFSGSIDSSSNSASLTISGLETEDEADYYCQSYDPTNLVFGGGTKLTVL | – | binds | binds
9 | 5.6.c4395 (antibody, V domains shown) VH: EVQLVESGGGLVQPGGSLRLSCAASGFTFSTYEMNWVRQAPGKGLEWIAFIDDGGSTINYADSVKGRFTVSRDNAKNSLYLQMNSLRADDTAIYYCARVMTTSFYYYGVDVWGQGTTVTVSS VL: DIQMTQSPSIVSASVGDRVTITCRASQGVSYWLAWYQQKPGKAPKLLIYAASSLQSGVPSRFSGSGSGTDFTLTISSLQPEDFATYYCQQAHSFPWTFGQGTKVEMK | – | binds | binds
10 | 5.6.c4471 (antibody, V domains shown) VH: QIQLVQSGTEVKKPGASVKVSCTASGYTFNNYAITWVRQAPGQGLEWMGWINPYNGDTTYAQKLQGRITMTTGRSTSTAYMDLRSLTSGDTAVYYCARGGAVTDLYFSYVMDVWGQGTTVSVSS VL: DIQMTQSPSSVSASVGDRVTITCRASQDVSYWLAWFQQKPGKAPELLIHAASSLQSGVPSRFSGSGSGTDFTLTINSLQPEDFATYYCQQSHSFPWTFGQGTKVEIK | – | binds | binds
11 | 5.6.c4515 (antibody, V domains shown) VH: QVQLVESGGDVVQPGRSLRLSCAASGFIFSTYGMHWVRQTPGKGLEWVAVLYYDGRNGYYADSVKGRFTISRDNSKNTLYLQMNSLRAEDTAVYYCARDGCSSTDCLLYYYAMDVWGQGTTVTVSS VL: QSALTQPPSASGSPGQSVTISCTGTSSDVGAYNYVSWYQQHPGKGPKLMIYEVNQRPSGVPGRFSGSKSGNTASLTVSGLQTEDEADYFCSSYAGSNTVVFGGGTKLTVL | – | binds | binds
12 | 5.6.c4516 (antibody, V domains shown) VH: EVHLVESGGGLVQRGGSLRLSCVASKFSFSFYSMGWVRQPPGKGLEWVSFISISGTTIYYEDSVKGRFTISRDDAKNSLYLQMNSLRDEDTAVYYCARIPQAAFHFDYWGQGTLVAVSS VL: QSALTQPASVSGSPGQSITISCTGSSSDVGSYNLVSWYQQHPGKAPKLMIYEGSSRPSGVSNRFSGSKSGNTASLTISGLQAEDEADYYCCAYAGTRTWLFGGGTKVTVL | – | binds | binds
13 | 9.1.c1482 (antibody, V domains shown) VH: QLQLQESGPGLVKPSETLSLTCTVSGGSITSGSNYWGWIRQSPGKGLEWIGSIYYSGSTYYNPSLKSRVTTSVDTSKNQFSLRMSSVTAADTALYYCVRHLSTELLFGCFDPWGQGTLVTVSS VL: DIQMTQSPSTLSASVGDRVTITCRASQSITGWLAWYQQKPGKAPKLLIYDASSLESGVPSRFSGSGSGTEFTLTISSLQPDDFATYYCLQYHSYSSFGQGTKLEIK | – | binds | binds
14 | 9.1.c1500 (antibody, V domains shown) VH: QLQLQESGPGLVKPSETLSLTCTVSGGSISSSSYFWGWIRQPPGKGLELIGIIYYTGNTNYNPSLKSRVTISVDTSKNQFSLKLSSVTAADTAVYYCARSLEAHLLYYYAMDVWGQGTTVTVFS VL: QSALTQPRSVSGSPGQSVTISCTGTSSDVGGYNYVSWYQQHPGKAPKLMIYDVSQRPSGVPDRFSGSKSGNTASLTISGLQAADEADYYCCSYAGSSWVFGGGTKLTVL | – | binds | binds
15 | 9.1.c1533 (antibody, V domains shown) VH: QVQLQESGPGLVKPSGTLSLTCTVSGGSISSNNWWSWVRQSPGKGLEWIGEIYHSGSTNYNPSLKSRVTISVDKSKNQFSLKVSSVTAADTAVYYCARGDQLIYYFDYWGQGTLVTVSS VL: QSALTQPASVSGSPGQSITISCTGSSSDVGVYDFVSWYQQHPGKAPKLMIYEVSNRPSGVSNRFSGSKSGNTASLTISGLQAEDEANYYCSSYTSSITNVVFGGGTKLTVL | – | binds | binds
16 | 9.1.c1617 (antibody, V domains shown) VH: QVQFVESGGGLVKPGGSLRLSCTTSGFTFSDYYMSWIRQAPGKGLEWVSYISRSGNIIYYPDSVKGRFTISRDNAKNSLYLQMNSLRVEDTAVYYCAGGVQRGYNYYYYGMYVWGQGITVTVSS VL: DIVMTQSPLSLPVTPGEPASISCRSSQSLLHSNGYNYLDWYLQRPGQSPQLLIYLGSNRASGVPDRFSGSGSGTDFTLKISRVEAEDFGFYYCMQALQTPYTFGQGTKLEIR | – | binds | binds
17 | 9.1.c1853 (antibody, V domains shown) VH: EVQLVQSGAEVKKPGESLRISCKGSGNSFSSYWISWVRQKPGKGLEWMGRIDPSDSYTSYSPSFQGHVTISADKTNSTAYLQWSGLKASDTAVYYCAREVAGEEIFYYYYMDVWGKGTPVTVSS VL: EIVLTQSPVTLSLSPGEKATLSCRASQSVISSYLVWYQQKPGQAPRLLIYGASNRASGIPDRFSGSGSGTDFTLTISRLEPEDFAVYYCQLYGSLPRWTFGQGTEVQIK | – | binds | binds
18 | 9.1.c1965 (antibody, V domains shown) VH: QVQLVQSGAEVKKPGASVKVSCKASGYTFTRYGINWVRQAPGQGLEWMGWISAYNGHTSYAQKLQGRVTMTTDTSTSTAYMELSSLRSDDTAVYYCARDAGMVRPYYFDYWGQGTLVTVSS VL: not shown | – | binds | binds
19 | 9.1.c2296 (antibody, V domains shown) VH: QVQLVESGGGVVHPGRSLRLSCAASGFTFSTYGMHWVRQAPGKGLEWVAVISYDGTNKYYADSVKGRFTTSRDNSKNTLYLQMNSLRAEDTAVYYCAKGEAYYDILTGNIDMWGQGTMVTVSS VL: DIQMTQSPSTLSASVGDRVTITCRASQSISYWLAWYQQKPGKAPKVLIYDVSSLESGVPSRFSGSGSETEFTLTISSLQPDDFATYYCQQYHSYPLTFGGGTKVEIK | – | binds | binds
